Where a chain is given by its changes, count along the chain named. Numbers in names are those of the source.
T1: full length mouse TMPRSS6 on HEK293 cells (HEK293/mTMPRSS6) (mouse, UniProt Q9DBI0 1-811)
T1 sequence: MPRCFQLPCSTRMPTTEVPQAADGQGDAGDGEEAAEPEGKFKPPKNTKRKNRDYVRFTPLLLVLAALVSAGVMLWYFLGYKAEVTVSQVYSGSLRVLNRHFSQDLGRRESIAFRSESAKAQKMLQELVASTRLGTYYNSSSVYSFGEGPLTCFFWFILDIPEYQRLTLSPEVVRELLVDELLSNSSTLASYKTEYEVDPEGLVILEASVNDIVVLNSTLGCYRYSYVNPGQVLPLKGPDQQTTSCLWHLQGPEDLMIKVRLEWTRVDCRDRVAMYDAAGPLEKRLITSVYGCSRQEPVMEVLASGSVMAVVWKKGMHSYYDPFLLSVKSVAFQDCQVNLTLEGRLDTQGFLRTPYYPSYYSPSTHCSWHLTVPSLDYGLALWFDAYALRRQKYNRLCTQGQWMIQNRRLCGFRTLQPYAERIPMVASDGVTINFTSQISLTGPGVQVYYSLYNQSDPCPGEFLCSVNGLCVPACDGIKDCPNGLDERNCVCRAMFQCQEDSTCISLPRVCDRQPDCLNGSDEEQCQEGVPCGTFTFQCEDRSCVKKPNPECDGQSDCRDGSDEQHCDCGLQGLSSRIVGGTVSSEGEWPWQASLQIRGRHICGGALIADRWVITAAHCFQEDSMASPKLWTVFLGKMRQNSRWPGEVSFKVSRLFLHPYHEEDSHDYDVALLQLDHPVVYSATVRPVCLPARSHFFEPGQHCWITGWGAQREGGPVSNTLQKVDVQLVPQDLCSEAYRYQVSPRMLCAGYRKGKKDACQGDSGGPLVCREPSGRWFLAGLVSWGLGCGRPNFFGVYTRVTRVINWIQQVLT

T2: extracellular domain of cynomolgous monkey TMPRSS6 (V673M) with N-terminal 8xHistidine, CHO conditioned media (cynomolgous monkey, UniProt Q8IU80 77-811 (human entry))
T2 chain: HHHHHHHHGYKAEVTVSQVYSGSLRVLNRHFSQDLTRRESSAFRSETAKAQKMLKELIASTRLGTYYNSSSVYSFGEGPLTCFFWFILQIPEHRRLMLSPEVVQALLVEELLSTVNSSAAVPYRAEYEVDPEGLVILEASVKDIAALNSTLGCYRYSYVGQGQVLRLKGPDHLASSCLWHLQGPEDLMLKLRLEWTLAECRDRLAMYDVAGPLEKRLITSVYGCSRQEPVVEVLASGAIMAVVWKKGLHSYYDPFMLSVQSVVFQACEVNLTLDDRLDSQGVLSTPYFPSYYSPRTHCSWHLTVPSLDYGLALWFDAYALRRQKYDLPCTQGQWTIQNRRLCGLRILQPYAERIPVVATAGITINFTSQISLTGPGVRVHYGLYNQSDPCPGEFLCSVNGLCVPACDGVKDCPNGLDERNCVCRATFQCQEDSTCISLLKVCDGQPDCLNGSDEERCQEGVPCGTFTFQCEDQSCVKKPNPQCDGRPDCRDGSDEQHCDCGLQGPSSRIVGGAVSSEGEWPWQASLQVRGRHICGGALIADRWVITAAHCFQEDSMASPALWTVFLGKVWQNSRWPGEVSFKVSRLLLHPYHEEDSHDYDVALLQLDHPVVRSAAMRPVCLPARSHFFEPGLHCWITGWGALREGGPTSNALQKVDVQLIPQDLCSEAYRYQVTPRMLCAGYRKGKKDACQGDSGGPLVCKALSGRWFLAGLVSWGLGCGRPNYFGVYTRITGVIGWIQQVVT

B1: REGN7974 (antibody, human IgG4 S228P, kappa, V domains shown)
VH: EVQLVESGGGLVQPGRSLRLSCIASGFNFGDYGMSWVRQAPGKGLEWVGFIRSKAYGGTTEYAASVKGRFTISRDDSKSIAYLQMNSLKTEDAAMYYCSRDYYDILTGYYGDYWGQGTLVTVSS
VL: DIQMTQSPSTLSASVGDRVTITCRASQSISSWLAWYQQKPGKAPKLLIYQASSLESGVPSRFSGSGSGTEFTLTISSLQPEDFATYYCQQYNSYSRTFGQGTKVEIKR
notes: fully human; human IgG4 Fc with hinge S108P; also called mAb41422
B2: REGN7999 (antibody, human IgG4 S228P, kappa, V domains shown)
VH: EVQLVESGGGLVQPGGSLRLSCAASGFTFSSYAMTWVRQAPGKGLEWVSAISGSDTSTYYADSVKGRFTISRDNSKNTLFLQMNSLRAEDTAVYYCAKHQDYDFSYYYSAMDVWGQGTTVTVSS
VL: DIQMTQSPSSLSASVGDRVIITCRASQDFNSWLAWYQQKPGKAPKLLIYAASSLQSGVPSRFSGSGSGTDFTLTISSLQPEDFATYYCQQTDSFPFTFGPGTKVDIKR
notes: fully human; human IgG4 Fc with hinge S108P; also called mAb41450
B3: REGN7969 (antibody, human IgG4 S228P, kappa, V domains shown)
VH: QVQLVESGGGVVQPGRSLRLSCAASGFTFNNYGMHWVRQAPGKGLEWVAIISYDGSNEYYSDSVKGRFTISRDNSKNTLYLQMNSLRAEDTAVYYCARDQDYGGNLFHYWGQGTLVTVSS
VL: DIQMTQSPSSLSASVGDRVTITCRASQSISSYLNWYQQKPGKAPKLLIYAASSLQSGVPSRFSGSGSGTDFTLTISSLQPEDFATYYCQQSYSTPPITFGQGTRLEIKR
notes: fully human; human IgG4 Fc with hinge S108P; also called mAb37746
B4: REGN8023 (antibody, human IgG4 S228P, kappa, V domains shown)
VH: EVQLVESGGGLVKPGGSLRISCAASGFIFVDYAMHWVRQAPGKGLEWVSGISWNSGSIGYADSVKGRFTISRDNAKKSLYLQMSGLRPEDTALYYCVKSGFYYVRSYFDNWGQGTLVTVSS
VL: DIVMTQSPLSLPVTPGEPASISCRSSQSLLDSDDGNTYLDWYLRKPGQSPQLLIYTLSYRASGVPDRFSGSGSGTDFTLKISRVEADDVGVYYCMQRIEFPLTFGGGTKVEIKR
notes: fully human; human IgG4 Fc with hinge S108P; also called mAb37699
B5: REGN7977 (antibody, V domains shown)
VH: EVQLVESGGGLVKPGGSLRVSCAASGVTFSNVWMSWVRQVPGKGLEWVGRIKSKTDGGTTDYAAPVKGRFTISKDDSKNTLFLQMNSLKTEDTAVYYCTTETGDFWSGYYPRFQHWGQGTLVTVSS
VL: DIQMTQSPSSLSASVGDRVTITCRASQYISTYLNWYQQKPGKAPSLLIYAASSLQSGVPSRFSGSGSGTDFTLTISSLQPEDFASYSCQQSYSTPPYTFGQGTKLEIKR
notes: fully human; human IgG4 Fc with hinge S108P; also called mAb41465
B6: REGN7971 (antibody, human IgG4 S228P, kappa, V domains shown)
VH: B3 VH with N30S, N31T, E58D, S61L, S85N, R98K, D101G, H108A, Y109S
VL: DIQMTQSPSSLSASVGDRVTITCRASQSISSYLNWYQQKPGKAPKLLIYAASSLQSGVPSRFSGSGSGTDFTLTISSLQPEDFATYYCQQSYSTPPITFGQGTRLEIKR
notes: fully human; human IgG4 Fc with hinge S108P; also called mAb37763

biological target: T3, mTMPRSS6_S762A-MMH (mouse, UniProt Q9DBI0 81-811); assay: SPR, mAb captured via anti-hFc, 25 C
T3 construct: also called REGN6848; mouse TMPRSS6 extracellular domain with a S762A mutation and a C-terminal myc-myc-hexahistidine tag
Method: (§1) The equilibrium dissociation constant (KD) for TMPRSS6 binding to different TMPRSS6 monoclonal antibodies (mAbs) was determined using a real-time surface plasmon resonance biosensor using a Biacore 4000 instrument. All binding studies were performed in 10 mM HEPES, 150 mM NaCl, 3 mM EDTA, and 0.05% v/v Surfactant Tween-20, pH 7.4 (HBS-ET) running buffer at 25° C. and 37° C. The Biacore CM5 sensor chip surface was first derivatized by amine coupling with a human Fc specific mouse mAb to capture different TMPRSS6 mAbs. […] Different concentrations (100 nM to 3.7 nM, 3-fold serial dilution) of the TMPRSS6 reagent proteins prepared in HBS-EP running buffer were injected over the TMPRSS6 mAb captured surface for 150 seconds at a flow rate of 30 μL/min and their dissociation in HBS-ET running buffer was monitored for 10 minutes. At the end of each cycle, the TMPRSS6 mAb captured surface was regenerated using a 12 second injection of 20 mM phosphoric acid.
(§2) The association rate (kₐ) and dissociation rate (kd) were determined by fitting the real-time binding sensorgrams to a 1:1 binding model with mass transport limitation using Scrubber 2.0 (BioLogic Software) curve-fitting software. Binding dissociation equilibrium constant (KD) and dissociative half-life (t½) were calculated from the kinetic rates as: […]

T3 sequence (Q9DBI0 other isoform, or with tags, fused parts or gaps S762A S762A): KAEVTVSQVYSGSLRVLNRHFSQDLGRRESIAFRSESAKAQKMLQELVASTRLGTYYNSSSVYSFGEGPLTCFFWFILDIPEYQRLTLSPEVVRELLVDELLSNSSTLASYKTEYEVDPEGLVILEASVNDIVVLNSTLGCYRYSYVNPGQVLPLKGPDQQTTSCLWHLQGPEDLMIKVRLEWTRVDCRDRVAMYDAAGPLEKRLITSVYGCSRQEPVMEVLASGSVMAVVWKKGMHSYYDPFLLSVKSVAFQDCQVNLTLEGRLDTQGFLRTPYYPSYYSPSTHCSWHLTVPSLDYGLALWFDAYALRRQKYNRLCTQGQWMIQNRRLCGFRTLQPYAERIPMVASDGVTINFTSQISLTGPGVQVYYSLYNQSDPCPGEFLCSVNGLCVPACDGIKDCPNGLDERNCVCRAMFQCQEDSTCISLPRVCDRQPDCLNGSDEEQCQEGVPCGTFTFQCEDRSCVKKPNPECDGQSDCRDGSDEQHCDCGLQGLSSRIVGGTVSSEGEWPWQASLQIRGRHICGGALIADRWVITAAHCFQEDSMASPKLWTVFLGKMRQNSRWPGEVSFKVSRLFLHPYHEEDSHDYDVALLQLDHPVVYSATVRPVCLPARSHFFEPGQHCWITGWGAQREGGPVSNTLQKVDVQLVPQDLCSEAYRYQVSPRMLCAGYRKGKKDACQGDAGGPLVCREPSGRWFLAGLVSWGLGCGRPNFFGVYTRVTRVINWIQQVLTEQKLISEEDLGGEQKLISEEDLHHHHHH

| 100 nM Ag Bound [RU] | binding result | Kd [nM] | koff [s⁻¹] | kon [M⁻¹ s⁻¹] | t½ [min] | Binder |
| --- | --- | --- | --- | --- | --- | --- |
| 3 | no binding (tested: 100 nM) | – | – | – | – | B1 |
| 178 | – | 0.0829 | 3.45e-05 | 416000 | 334 | B2 |
| 4 | no binding (tested: 100 nM) | – | – | – | – | B3 |
| 209 | – | 1.84 | 0.0011 | 599000 | 10 | B4 |
| 20 | – | 233 | 0.067 | 288000 | 0.17 | B5 |

biological target: T1, full length mouse TMPRSS6 on HEK293 …; assay: cell-based or functional assay

| % inhibition, HEK293 bioassay, overnight pre-incubation 37 C [%] | IC50, HEK293 bioassay, overnight pre-incubation 37 C [nM] | Binder |
| --- | --- | --- |
| 103 | 2.1 | B2 |
| 98 | 1.2 | B4 |
| 97 | 14 | B5 |

biological target: T3, mTMPRSS6_S762A-MMH; assay: SPR, mAb captured via anti-hFc, 37 C
Method: as §1, §2

| 100 nM Ag Bound [RU] | Kd [nM] | koff [s⁻¹] | kon [M⁻¹ s⁻¹] | t½ [min] | Binder |
| --- | --- | --- | --- | --- | --- |
| 3 | – | – | – | – | B1 |
| 130 | 0.317 | 0.00016 | 505000 | 72 | B2 |
| 2 | – | – | – | – | B3 |
| 189 | 24.7 | 0.00666 | 269000 | 1.7 | B4 |
| 9 | 703 | 0.227 | 323000 | 0.05 | B5 |

biological target: extracellular domain of Human TMPRSS6 with N-terminal 8xHistidine, CHO conditioned media (human, UniProt Q8IU80 68-802, limits assumed); assay: cell-based or functional assay
Sequence (Q8IU80 other isoform, or with tags, fused parts or gaps limits assumed): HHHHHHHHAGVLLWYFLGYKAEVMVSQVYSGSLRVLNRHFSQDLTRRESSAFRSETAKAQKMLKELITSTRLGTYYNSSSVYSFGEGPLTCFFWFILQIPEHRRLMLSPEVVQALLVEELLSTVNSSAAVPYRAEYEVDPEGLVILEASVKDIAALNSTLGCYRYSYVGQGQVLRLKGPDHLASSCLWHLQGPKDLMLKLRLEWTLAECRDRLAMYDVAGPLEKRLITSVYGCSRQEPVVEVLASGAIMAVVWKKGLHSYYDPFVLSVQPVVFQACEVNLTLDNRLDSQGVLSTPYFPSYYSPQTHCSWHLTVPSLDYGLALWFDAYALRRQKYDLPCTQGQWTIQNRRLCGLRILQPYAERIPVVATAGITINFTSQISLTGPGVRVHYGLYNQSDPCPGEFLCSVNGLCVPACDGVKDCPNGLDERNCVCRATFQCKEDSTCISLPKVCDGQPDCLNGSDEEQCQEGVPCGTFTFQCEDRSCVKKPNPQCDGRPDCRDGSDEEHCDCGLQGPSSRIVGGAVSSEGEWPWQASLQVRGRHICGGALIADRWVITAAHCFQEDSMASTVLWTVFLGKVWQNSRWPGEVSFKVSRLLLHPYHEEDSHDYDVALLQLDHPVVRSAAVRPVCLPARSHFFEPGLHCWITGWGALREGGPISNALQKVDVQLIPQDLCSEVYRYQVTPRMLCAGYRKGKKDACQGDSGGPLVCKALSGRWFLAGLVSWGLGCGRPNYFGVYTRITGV

| % inhibition of enzymatic activity, CM bioassay [%] | IC50, CM bioassay [nM] | Binder |
| --- | --- | --- |
| 85 | 400 | B1 |
| 98 | 3 | B2 |
| 71 | > 10 | B3 |
| 65 | > 10 | B6 |
| 98 | 0.71 | B4 |
| 94 | 23 | B5 |

Biological target: T2, extracellular domain of cynomolgous …
Assay: cell-based or functional assay

| % inhibition of enzymatic activity, CM bioassay [%] | IC50, CM bioassay [nM] | Binder |
| --- | --- | --- |
| 69 | > 50 | B1 |
| 98 | 1.7 | B2 |
| 66 | > 50 | B3 |
| 68 | > 50 | B6 |
| 98 | 0.74 | B4 |
| 89 | 50 | B5 |

biological target: T1, full length mouse TMPRSS6 on HEK293 …; assay: flow cytometry, HEK293/mTMPRSS6 cells

| binding result | Binder |
| --- | --- |
| no binding (tested: 375 nM) | B1 |
| no binding (tested: 375 nM) | B3 |
| no binding (tested: 375 nM) | B6 |

biological target: T1, full length mouse TMPRSS6 on HEK293 …; assay: cell-based or functional assay; remark: another data set of the same source

| % inhibition, HEK293 bioassay, 30 min pre-incubation 25 C [%] | IC50, HEK293 bioassay, 30 min pre-incubation 25 C [nM] | Binder |
| --- | --- | --- |
| 88 | 3.6 | B2 |
| 82 | 1.5 | B4 |
| 58 | 35 | B5 |

From US20220411487A1 (Regeneron, published 2022)
